Experimental data published in US8404652B2, “DNA-binding protein YB-1-containing collagen accumulation inhibitors” (Sumitomo Chemical Company, Limited, priority 2000, dated 2013).

B1: Positive control: interferon-γ (Roche) added at 100 U/ml in the medium (protein, UniProt P01579 24-161, looked up)
Interferon gamma: QDPYVKEAENLKKYFNAGHSDVADNGTLFLGILKNWKEESDRKIMQSQIVSFYFKLFKNFKDDQSIQKSVETIKEDMNVKFFNSNKKKRDDFEKLTNYSVTDLNVQRKAIHELIQVMAELSPAAKTGKRKRSQMLFRG

Experiments:
Format in all cases: cell-based
[1] = test system: promoter region of the human type-I collagen α2 strand gene (binding reporter vector); test: CAT reporter assay of test substances, binding reporter vector-transduced fibroblast
Description: (§1) 2 ml of an angelica extract [ICHIMARU-PHARCOS, PHARCOLEX (trade mark of ICHIMARU-PHARCOS), angelica] and 2 ml of a basswood extract [ICHIMARU-PHARCOS, PHARCOLEX (trade mark of ICHIMARU-PHARCOS), linden] were freeze-dried and each was combined with 1 ml of dimethyl sulfoxide (hereinafter referred to as DMSO) per 50 mg of the freeze-dried material, whereby obtaining an angelica extract sample and a linden extract sample.
(§2) A normal human fetal dermal fibroblast was inoculated in a population of 1×10^6 cells in a 60-mm dish and incubated in D-MEM (+) overnight at 37° C. under 5% CO2 atmosphere, and then the culture medium was replaced with D-MEM (−). On the other hand, 100 μl of D-MEM (−) was combined with either of 2 μg of the binding reporter vector DNA or 2 μg of the non-binding reporter vector DNA obtained in Example 2 (3), and the mixture was allowed to stand at room temperature for 40 minutes (Solution 1). To 100 μl of MEM(−), 4.5 μl of Lipofectine (Gibco, Catalog No.18292-011) was added and the mixture was allowed to stand at room temperature for 40 minutes (Solution 2). Then Solution 1 and Solution 2 were mixed and allowed to stand at room temperature for 10 minutes, and then combined with 2 ml of D-MEM (−) and mixed. This mixture was added to the normal human fetal fibroblast described above, which was then incubated at 37° C. under 5% CO2 atmosphere for 6 hours. […]

[2] = test system: human type-I collagen α2 strand mRNA; test: Type-I collagen α2 strand mRNA quantity (northern blotting) with test substances; conditions: extract 50 μg lyophilized sample per ml, INF-γ 100 U/ml
Description: A normal human fetal dermal fibroblast was inoculated in a population of […] in a 100-mm dish and incubated in D-MEM (+) overnight at 37° C. under 5% CO2 atmosphere. This cell was supplemented with the angelica extract sample prepared in Example 7 (2) at 50 μg lyophilized sample per ml medium and incubated further for 24 hours. In a case of negative control, the angelica extract sample was replaced with DMSO (added at 0.1% in the medium).
In a case of positive control, the angelica extract sample was replaced with INF-γ (added at 100 U/ml in the medium). The cell thus incubated was washed twice with a PBS, and used to prepare a total RNA similarly to Example 1 (1). […] The radioactivity of the air-dried filter was determined using BAStation.
On the other hand, 10 μg of the total RNA was subjected to an electrophoresis on the gel described above which contained 0.5 μg/ml of ethidium bromide (Gibco BRL, Catalog No.15582-018) and the fluorescent intensity of 28S ribosome RNA was quantified using Luminescent Image Analyzer LAS-1000 plus (FUJI FILM) and Image Gauge Ver 3.12 (FUJI FILM). The quantity of the type-I collagen α2 strand mRNA relative to the 28S ribosome RNA was calculated in accordance with the following equation. Type-I collagen α2 strand mRNA quantity=Radioactivity of band of about 5.8 kb/fluorescent intensity of 28S ribosome RNA […]

[3] = test system: non-binding reporter vector; test: CAT reporter assay of test substances, non-binding reporter vector-transduced fibroblast; conditions: normal human fetal dermal fibroblast; sample 1 μg freeze dried material/ml, IFN-γ 100 U/ml; 40 hours; negative control of binding reporter cell = 1.0
Description: as §1, §2

[4] = test system: DNA-binding protein of invention (YB-1) fused with GFP (pCMX-YB-1-GFP); test: Fluorescent microscope examination of migration of YB-1-GFP into the nucleus; conditions: human fibroblast transduced with pCMX-YB-1-GFP; 4 hours contact; IFN-γ 100 U/ml as positive control
Description: 100 ng of YB-1/RSV, 10 pmol of an oligonucleotide consisting of the nucleotide sequence represented by SEQ ID NO:.15, 10 pmol of an oligonucleotide consisting of the nucleotide sequence represented by SEQ ID NO:.16, 5 μl of the buffer included in KOD-Dash (TOYOBO, Catalog No.RR002A), 5 μl of Mg^2+ solution, 5 μl of dNTP mixture, 1 μl of KOD-Dash and distilled water were mixed to prepare 50 μl in total of a PCR solution, which was used to perform a PCR. The condition of the PCR involved an incubation at 94° C. for 2 minutes, followed by 35 cycles, each cycle involving the incubations at 94° C. for 15 seconds, 60° C. for 30 seconds and then 68° C. for 1 minute. After the PCR, the PCR solution was digested with HindIII and Pm1I and subjected to an ethanol precipitation to recover a DNA (hereinafter a DNA obtained as a residue is referred to as a YB-1DNA.). […] The nucleotide sequence of the plasmid DNA thus obtained was analyzed, and a plasmid having a nucleotide sequence in which a GFP amino acid sequence was encoded downstream of the amino acid sequence of the DNA-binding protein of the present invention with its reading flame being continued was selected. […]

Molecule | relative CAT activity ([1]; binding reporter vector-transduced normal human fetal dermal fibroblast, 8 μM in medium, methanol negative control = 1.0) | Relative transcription level of type-I collagen gene (α2 strand mRNA level) ([2]; Table 5, TGFβ column prints Absent (method: TGFβ 10 ng/ml), negative control with TGFβ = 1.0) | Relative transcription level of type-I collagen gene (α2 strand mRNA level) ([2]; normal human fetal dermal fibroblast, TGFβ absent, 24 hours, negative control = 1.0) | Relative CAT activity, non-binding reporter vector-transduced cell [3] | localisation of YB-1-GFP fluorescence (cytoplasmic / intranuclear) [4] | Relative CAT activity, binding reporter vector-transduced cell ([1]; normal human fetal dermal fibroblast, sample 1 μg freeze dried material/ml, IFN-γ 100 U/ml, 40 hours, negative control = 1.0)
CC(O)C(O)/C=C/C=C\CC/C=C/C(=O)NCC(C)(C)O (stereo not drawn) [Compound A] | 0.7 | – | – | – | – | –
B1 | – | 0.5 | 0.5 | 0.9 | no cytoplasmic fluorescence | 0.6
